The text below walks through data of patent US20100015135A1.

Numbering of substitutions follows the chain as printed. Bounds are passed on as bounds.

B1: anti-EphB4 antibody clone YW30.35 (antibody, V domains shown)
VH: EVQLVESGGGLVQPGGSLRLSCAASGFTISGYYIHWVRQAPGKGLEWVGGIYPYSGSTDYADSVKGRFTISADTSKNTAYLQMNSLRAEDTAVYYCARGSGLRLGGLDYAMDYWGQGTLVTVSS
VL: DIQMTQSPSSLSASVGDRVTITCRASQDVSTAVAWYQQKPGKAPKLLIYSASFLYSGVPSRFSGSGSGTDFTLTISSLQPEDFATYYCQQSYTTPPTFGQGTKVEIK
B2: anti-EphB4 antibody clone 30.35.2D13 (antibody, V domains shown)
VH: B1 VH with P53L
VL: B1 VL with S91T, Y92A, T93Q, P96E
B3: anti-EphB4 antibody clone YW30.35.1D2 (antibody, V domains shown)
VH: B1 VH with G99S
VL: DIQMTQSPSSLSASVGDRVTITCRASQDSEIFLAWYQQKPGKAPKLLIYSASNLESGVPSRFSGSGSGTDFTLTISSLQPEDFATYYCQQSNAVPLTFGQGTKVEIK
B4: anti-EphB4 antibody clone YW30.35.2D8 (antibody, V domains shown)
VH: B1 VH with T28S, G31N, I34L, P53L, S55G, G56S, T58S, D59E
VL: B1 VL with Q90E, Y92T
B5: anti-EphB4 antibody clone YW30.35.2D12 (antibody, V domains shown)
VH: B1 VH with P53L, T58R, D59G
VL: B1 VL with Q90K, Y92E, T94I, T97S

One assay concerns the target T1, human EphB4-His (human) (UniProt P54760).
T1 sequence (looked up): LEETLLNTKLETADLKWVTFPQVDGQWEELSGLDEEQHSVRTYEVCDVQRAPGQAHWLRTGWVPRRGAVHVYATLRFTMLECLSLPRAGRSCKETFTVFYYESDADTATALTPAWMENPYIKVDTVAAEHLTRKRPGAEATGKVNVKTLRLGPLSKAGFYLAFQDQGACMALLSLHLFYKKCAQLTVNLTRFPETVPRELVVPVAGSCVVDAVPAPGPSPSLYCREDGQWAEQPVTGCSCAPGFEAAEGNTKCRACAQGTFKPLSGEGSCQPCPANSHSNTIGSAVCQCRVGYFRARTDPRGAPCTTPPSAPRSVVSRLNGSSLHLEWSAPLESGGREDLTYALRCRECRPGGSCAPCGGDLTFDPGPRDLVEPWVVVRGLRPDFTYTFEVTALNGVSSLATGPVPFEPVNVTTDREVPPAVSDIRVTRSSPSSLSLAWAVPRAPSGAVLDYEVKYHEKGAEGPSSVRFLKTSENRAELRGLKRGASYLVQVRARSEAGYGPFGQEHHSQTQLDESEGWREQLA
Description: SPR, BIAcore-3000, antibody coupled to CM5 chip, EphB4-His injected, 25 C. On the technique in general: Surface plasmon resonance follows binding to a sensor surface in real time, without labels.
Consider B1, for which the Kd (commonly a measure of binding affinity in units of concentration) came out at 32 nM; the koff – broadly, the first-order rate constant of dissociation – was 9.6e-05 s⁻¹; the kon (commonly the rate constant with which the complex forms) is 3000 M⁻¹ s⁻¹.
On the same counts, the results for B2 are under 0.11 nM, under 5e-06 s⁻¹ and 45000 M⁻¹ s⁻¹.
B3 showed a Kd of under 0.14 nM, a koff of under 5e-06 s⁻¹ and a kon of 36000 M⁻¹ s⁻¹.
B4: the Kd is under 0.12 nM, the off-rate (koff) was under 5e-06 s⁻¹ and the kon stood at 40000 M⁻¹ s⁻¹.
On the same counts, the results for B5 are under 0.19 nM, under 5e-06 s⁻¹ and 27000 M⁻¹ s⁻¹.

The next assay deals with murine EphB4-His (murine) (UniProt P54761). The description is as above.
Molecule B1 had a Kd of 2.4 nM, a koff of 7.5e-05 s⁻¹ and a kon of 31000 M⁻¹ s⁻¹.
On the same counts, the results for B3 are under 0.04 nM, under 5e-06 s⁻¹ and 128000 M⁻¹ s⁻¹.
On to B4, for which the Kd was under 0.05 nM, the koff was under 5e-06 s⁻¹ and the kon was 92000 M⁻¹ s⁻¹.
